# Measured values published in the nanobody polyreactivity screen of Harvey et al. (2022).
# Assay: yeast display, Sf9 membrane polyspecificity reagent, FACS + sequencing; frameworks hold sequencing errors
# In short: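 Sorting gates, low and high (top ~1%), were placed on anti-HA fluorescence to track expression and on streptavidin fluorescence to track reagent binding. A clone's polyreactivity label is taken from the gate it came out of. The reagent was 10% biotinylated, detergent-solubilized Sf9 membrane, applied for 1 hour at 4 °C to galactose-induced yeast display cells.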
row,Sequence,polyreactivity (PSR sort gate)
1,QVQLVESGGGLVQAGGSLRLSCAASGFTFGAYAKGWSRQAPGKEWELVASISWSGTSTYYADSVKGRFTISRDNAKNTVYLQMNSLKPEDTAVYYCAAGYRSTRYDYWGQGTQVTVSS,high polyreactivity
2,QVQLVESGGGLVQAGGSLRLSCAASGFTFGDNAMGWYRQAPWKERELVADIDSDGSTYYADSVKGRFTISRDNAKNTFYLEMNSLKPEDNAVYYCAKDQYYSLGPYSFGFDYWGQGTQVNVSS,low polyreactivity
3,QVQLVESGGGLVQAGGSLRLSCAASGFTFGDYAMGWYRQAPGKERELVAAISRSGSNTYYADSVKGRFTISRDNAKNTVYLQMNSQKPEDTAVYYCNADYDPEDMDYWGQGTQVTVSS,low polyreactivity
4,QVQLVESGGGLVQAGGSLRLSCAASGFTFGDYAMGWYRQAPRKERELVAAISKRGGRTFYADSVKGRFTISRDNAKNTVYLQMNSLKPEDTAVYYCAKAGSFDYDYWGQGTQVTVSS,high polyreactivity
5,QVQLVESGGGLVQAGGSLRLSCAASGFTFGEYAMGWYRQAPGKEREFVAAISATGGSTYYADSVKGRFTISRDNAKNTVYLQMNSLKPEDTAVYYCAARDAYYDGYDYWGQGTQVTVSS,low polyreactivity
6,QVQLVESGGGLVQAGGSLRLSCAASGFTFGFNAMGWYRQAPGKEREFVASITYRGGSTYYADSVKGRFTISRDNAKNTVYLQMNSLKPEDTAVYYCAAASPWRRYISDYWGQGTQVTVSS,high polyreactivity
7,QVQLVESGGGLVQAGGSLRLSCAASGFTFGFYAMGWYIQAPGNERELVASITTRGGSTRYADSVKGRFTISRDNAKNTVYLQMNSLKPEDTAVYYCAAQYSYVRYLKRGYGYWGQGTQVTVSS,high polyreactivity
8,QVQLVESGGGLVQAGGSLRLSCAASGFTFGGYAMGWYRQAPGKERELVAAISGRGGRTYYADSVKGRFTISRDNAKNTVYLQMNSLKPEDTAVYYCAAPTNHWTLLSGDYWGQGTQVTVSS,high polyreactivity
9,QVQLVESGGGLVQAGGSLRLSCAASGFTFGGYAMGWYRQAPGKERELVAAISRSGGSTYYADSVKGRFIISRDNAKNTVYLQMNSLKPEDTAVYYCAAKTVSRARLYDYWGQGTQVTVSS,high polyreactivity
10,QVQLVESGGGLVQAGGSLRLSCAASGFTFGINAMGWYRQAPGKERELVAAINQSGDRTYYADSVKGRFTISRDNAKNTVYLQMNSLKPEDTAVYYCAGPSYWGGGRYRYGYWGQGTQVTVSS,high polyreactivity
11,QVQLVESGGGLVQAGGSLRLSCAASGFTFGNNGMGWYRQAPGKERELVATISWSGGSTYADSVKGRFTISRDNAKNTVYLQMNSLKPEDTAVYYCAAPYLSLYWYDYWGQGTQVTVSS,low polyreactivity
12,QVQLVESGGGLVQAGGSLRLSCAASGFTFGPYAMGWYRQAPGKERELVAAIRSGGSTNYADSVKGRFTISRDNAKNTVYLQMNSLKPEDTAVYYCAAGYRRGWVTMGYWGQGTQVTVSS,high polyreactivity
13,QVQLVESGGGLVQAGGSLRLSCAASGFTFGRYAMGWYRQAPGKERELVAAISSSGSSTYYADSVKGRFTLSRDNAKNTVYLQMNSLKPEDTAVYYCNTRCRKHPSSYPYDYWGQGTQVTVSS,high polyreactivity
14,QVQLVESGGGLVQAGGSLRLSCAASGFTFGRYAMGWYRQAPGKERELVATITRSGVNTYYADSVKGRFTISRDNAKNTVYLQMNSLKPEDTAVYYCAAVEIWYWGFTQYEYWGQGTQVTVSS,high polyreactivity
15,QVQLVESGGGLVQAGGSLRLSCAASGFTFGSNDMGWYRQAPVKERELVAAIDGSGDTYYADSVKGRFTISRDNAKNTVYLQMNSLKPEDTAVYYCAAGYTYYSLYGYWGQGTQVTVSS,low polyreactivity
16,QVQLVESGGGLVQAGGSLRLSCAASGFTFGSYAMGWYIQAPGKERELVARISSDGSTNYADSVKGRFTISRDNAKNTVYLQMNSLKPEDTAVYYSARDRKRQADDIGEFDYWGQGTQVTVSS,low polyreactivity
17,QVQLVESGGGLVQAGGSLRLSCAASGFTFGSYAMGWYRQAPGKERELVAAISWGGGSTYYADSVKGRFTISRDNAKNTVYLQMNSLKPEDTAVYYCNADAISSFGYWGQGTQVTVSS,high polyreactivity
18,QVQLVESGGGLVQAGGSLRLSCAASGFTFGVYAMGWYRPAPGKERELVAAITSGGGRTYADSVKGRFTISRDNAKNTVYLQMNSLKTEDTADYYCAAEGVPLRVVLDYSYWDYDYDYWGQGTQVTVSS,low polyreactivity
19,QVQLVESGGGLVQAGGSLRLSCAASGFTFGWYAMGWDIQAPGKERELLATISWSGSSTYYADSVKGLFTISRDNAKNTVYLQMNSLKPEDTAVYYCNAVYGGFVVLRYDYWGQGTQVTVSS,high polyreactivity
20,QVQLVESGGGLVQAGGSLRLSCAASGFTFGWYAMGWYRQAPGKEREFVAAISRSGGSTYYADSVKGRFTISRDNAKNTVYLQMNSLKPEDTAVYYCAAYIIGDTHAEYDYWGQGTQVTVSS,high polyreactivity
21,QVQLVESGGGLVQAGGSLRLSCAASGFTFGWYTMGWYRQAPGKERELDAAISLNGGSTYYADSVKGRFTISRDNAKNTVYLQMTSLKPEDTAVYYCAIRYRWPYYPYVYWGQGTQVTVSS,low polyreactivity
